Molecular target: T1, phospholamban (PLN) (UniProt P26678 1-52)
T1 construct: phospholamban, overexpressed
T1 sequence (looked up): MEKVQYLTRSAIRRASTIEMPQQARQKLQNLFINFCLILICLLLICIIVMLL
Assay: co-IP; IP experiments in overexpression systems, told in the discussion only, data not shown; which partner was precipitated is not told
Conditions: partners not purified

fold change of affinity against wild-type SERCA2a: ~2.5 fold
B1: acetylation-mimic mutant of K328 SERCA2a (K328Q) (natural protein, UniProt P16615-2 1-997, looked up)
chain: MENAHTKTVEEVLGHFGVNESTGLSLEQVKKLKERWGSNELPAEEGKTLLELVIEQFEDLLVRILLLAACISFVLAWFEEGEETITAFVEPFVILLILVANAIVGVWQERNAENAIEALKEYEPEMGKVYRQDRKSVQRIKAKDIVPGDIVEIAVGDKVPADIRLTSIKSTTLRVDQSILTGESVSVIKHTDPVPDPRAVNQDKKNMLFSGTNIAAGKAMGVVVATGVNTEIGKIRDEMVATEQERTPLQQKLDEFGEQLSKVISLICIAVWIINIGHFNDPVHGGSWIRGAIYYFKIAVALAVAAIPEGLPAVITTCLALGTRRMAQKNAIVRSLPSVETLGCTSVICSDKTGTLTTNQMSVCRMFILDRVEGDTCSLNEFTITGSTYAPIGEVHKDDKPVNCHQYDGLVELATICALCNDSALDYNEAKGVYEKVGEATETALTCLVEKMNVFDTELKGLSKIERANACNSVIKQLMKKEFTLEFSRDRKSMSVYCTPNKPSRTSMSKMFVKGAPEGVIDRCTHIRVGSTKVPMTSGVKQKIMSVIREWGSGSDTLRCLALATHDNPLRREEMHLEDSANFIKYETNLTFVGCVGMLDPPRIEVASSVKLCRQAGIRVIMITGDNKGTAVAICRRIGIFGQDEDVTSKAFTGREFDELNPSAQRDACLNARCFARVEPSHKSKIVEFLQSFDEITAMTGDGVNDAPALKKAEIGIAMGSGTAVAKTASEMVLADDNFSTIVAAVEEGRAIYNNMKQFIRYLISSNVGEVVCIFLTAALGFPEALIPVQLLWVNLVTDGLPATALGFNPPDLDIMNKPPRNPKEPLISGWLFFRYLAIGCYVGAATVGAAAWWFIAADGGPRVSFYQLSHFLQCKEDNPDFEGVDCAIFESPYPMTMALSVLVTIEMCNALNSLSENQSLLRMPPWENIWLVGSICLSMSLHFLILYVEPLPLIFQITPLNVTQWLMVLKISLPVILMDETLKFVARNYLEPAILE
notes: SERCA2a with lysine 328 exchanged for glutamine to mimic acetylation; The mutants were expressed from plasmids in HEK293 cells for the ATPase assays; also called K328Q SERCA2a
